Results published in patent US9777056B2, “Immunotherapy for clearing pathological tau conformers” (New York University, priority 2006, dated 2017).

Assay: Thioflavin T (ThT) in vitro fibrillogenesis assay
Assay type: physicochemical
Conditions: 0.1 M Tris pH 7.4, incubated for different times
Description: ThT binds specifically to β-sheet structure and this binding produces a shift in its emission spectrum and a fluorescent enhancement proportional to the amount of amyloid formed. Following the incubation period, 50 mM glycine, pH 9.2, and 2 μM ThT was added to a final volume of 200 μl containing 3 μg of the immunogen or the P301L tau peptide (with or without equimolar concentration of antibodies purified from the immunized mice). Fluorescence was measured at excitation 435 nm and emission 485 nm on a SpectraMax M2 multi-detection plate reader (Molecular Devices, Sunnyvale, Calif.).

## Aβ1-42: amyloid-β control peptide used for comparison in ThT and MTT assays
  fibril formation (fibrillogenicity), Thioflavin T fluorescence: very fibrillogenic
